Source: the supplement of paper PMC9732359
± gives the uncertainty stated by the source.

Assay: protein stability index of a GFP-peptide fusion (yeast GPS) (PSI 1-4); higher = more stable; sorted into four equal gates, so the index is relative within each strain
Conditions: pdr5∆
Procedure, shortened: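 For each peptide, the protein stability index sums the read frequency in every gate after multiplying it by the gate number. Read frequencies came from plasmids that were PCR-amplified from each gate and Illumina-sequenced, with reads assigned to strains by barcodes. The gates were four equal bins of GFP/Cherry fluorescence ratio applied to mid-log yeast in leucine-free medium carrying a pooled library of tiled 17-residue yeast protein peptides fused downstream of GFP on a Cherry-expressing plasmid.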

| Sequence | protein stability index |
| --- | --- |
| LFPEQQNKEIKAERVED [RPL6A] | 3.14 ± 0.1 |
| LFPIVKKHGKTDYFLPK [YJL039C/NUP192] | 2.66 ± 0.11 |
| LFPNELYNVMGINKKKL [RPC31] | 2.87 ± 0.24 |
| LFSKNRNEVLESMDFLV [YCS4] | 2.19 ± 0.066 |
| LGDMAVCFNNLVDENTD [YCS4] | 2.8 ± 0.077 |
| LGFTPGELRSYLKGATG [FAS1] | 3.66 ± 0.28 |
| LGIALIALGEDIGKEMS [RPN1] | 3.01 ± 0.091 |
| LGINLVTADTVILFDSD [ISW2] | 2.65 ± 0.086 |
| LGKKGVPYVVTHDGRTI [RPS4A] | 2.52 ± 0.092 |
| LGLKFDDLIAEENPIMQ [QCR7] | 2.21 ± 0.14 |
| LGNDIPHDLIIGTADIF [BRR2] | 2.76 ± 0.068 |
| LGNVDAFQLADGIHYIL [PRP8] | 2.65 ± 0.083 |
| LGPLSYQNMAFITAKDK [YJR042W/NUP85] | 2.22 ± 0.088 |
| LGYARFILLDRLRQFNL [SMC4] | 1.8 ± 0.065 |
| LGYPPISLVDDIINAVN [MTW1] | 2.14 ± 0.065 |
| LHANGASFFFMVMFMHM [COB] | 1.36 ± 0.028 |
| LHQYYGDDESKIPAVEY [FAS1] | 2.75 ± 0.21 |
| LHVLPTLNSRALSGLYY [SNM1] | 2.45 ± 0.05 |
| LHYIPKYNRYEKRHKNV [RPS11A] | 1.74 ± 0.054 |
| LIAIVSKLLQTTLKLSP [NUT1] | 1.39 ± 0.063 |
| LIEKVDDTAANNGDKDH [YIL149C/MLP2] | 3.25 ± 0.084 |
| LIESLNTIRQNVTSSGD [YML103C/NUP188] | 1.27 ± 0.096 |
| LIGRPPLLVPGMTPCTV [FAS1] | 1.82 ± 0.079 |
| LIIQYPPNNARRTYNTL [ISW2] | 2.49 ± 0.042 |
| LIPCKYLNRHADFFVRE [RPN7] | 2.49 ± 0.12 |
| LIRFDESITKAMEFIFG [SMC2] | 2.52 ± 0.17 |

| Sequence | protein stability index |
| --- | --- |
| LISGAGANPRVLSTFTA [RPN10] | 2.04 ± 0.1 |
| LISIHSRENNSEYMVFG [YJL039C/NUP192] | 2.25 ± 0.13 |
| LISSSLSNLSKDIKANL [YCS4] | 1.72 ± 0.061 |
| LISSSQDMQLKIWSVKD [RPN14] | 2.73 ± 0.22 |
| LITSSARKELPIFDYIH [SIR3] | 2.06 ± 0.061 |
| LIYHLKDCAEVDSRTKI [IRR1] | 3.18 ± 0.072 |
| LKAQITSLKCLVNRKPI [SNF2] | 1.77 ± 0.038 |
| LKDFNTERVVEIGPSPT [FAS2] | 2.901 ± 0.022 |
| LKENNAILQKSLKNVTE [YIL149C/MLP2] | 2.57 ± 0.057 |
| LKEVLYNDSATSGEAAA [RPN2] | 1.52 ± 0.063 |
| LKEVPTYRYVSVSVLVD [RPS25A] | 2.13 ± 0.069 |
| LKEYQSKIIVFPRDGKA [RPL13B] | 3.17 ± 0.072 |
| LKEYQSKIIVFPRNGKA [RPL13A] | 2.9 ± 0.091 |
| LKIYAQIEKKEIKKMII [YCG1] | 2.8 ± 0.051 |
| LKIYYKEEFSSDESIER [RRI2] | 2.43 ± 0.15 |
| LKLENLHVVSKSSIEKD [SIN4] | 2.74 ± 0.11 |
| LKLNTSLPSKLTKYKEM [SRP68] | 1.74 ± 0.065 |
| LKLSMADYNGALLRVTK [POP4] | 2.52 ± 0.05 |
| LKNYVLNELHPTLPTNH [PRP8] | 3.04 ± 0.054 |
| LKPKLYYEQFRPDLIKE [SIR3] | 3.15 ± 0.06 |
| LKRSTELLETVSLTKRK [YIL149C/MLP2] | 2.06 ± 0.045 |
| LKSLNDIETQLCSMLQE [MED11] | 2.91 ± 0.079 |
| LKSLYSFFNISPDAPKE [SIN4] | 1.38 ± 0.048 |
| LKTKLLEEVEGSCTGKF [RPB7] | 2.84 ± 0.22 |
| LKTVLHNGRDKIQFHIH [RGR1] | 1.49 ± 0.05 |
| LKYHDFLRKATAFNKTR [RPL16B] | 3.06 ± 0.054 |

| Sequence | protein stability index |
| --- | --- |
| LKYYQDLKNTRMKSITS [SNF5] | 2.24 ± 0.19 |
| LLDAGCKVVAEMIRGRS [SKP1] | 2.06 ± 0.14 |
| LLDAYSHIESDSTSHNN [MED1] | 2.93 ± 0.048 |
| LLEGLNEKIEKRSDLTG [UBP6] | 3.11 ± 0.063 |
| LLESYKTLSLKSMASAF [RPN7] | 2.31 ± 0.11 |
| LLFEDLFKKFNNDFKLS [RET1] | 1.39 ± 0.23 |
| LLGIFDDIFIPQNMLFE [RPC25] | 2.7 ± 0.17 |
| LLGTMAGGAADCQFWET [PRE2] | 2.6 ± 0.078 |
| LLHERKLLNDLALENGE [NUT1] | 2.66 ± 0.073 |
| LLIISCIIFITFEFINI [YML031W/NDC1] | 1.43 ± 0.038 |
| LLISYGVSIENENKVII [SRB4] | 2.36 ± 0.14 |
| LLKDIFANNLKSAISNN [SIR4] | 2.48 ± 0.042 |
| LLKEEKIIELMNKIFTI [YML103C/NUP188] | 1.57 ± 0.097 |
| LLKLERKKTEAVARLKS [SNF2] | 2.14 ± 0.083 |
| LLLAANTHLGARNVQVH [RPS0A] | 1.21 ± 0.039 |
| LLLDNGFNMKKITTSTE [SRP68] | 2.22 ± 0.091 |
| LLLKDQQTAKKLIPKLY [ECM29] | 2.46 ± 0.061 |
| LLLKKLDNFQKSVEKTM [SMC3] | 2.74 ± 0.23 |
| LLLTIQLLIIEKEWENA [SRP72] | 1.73 ± 0.059 |
| LLNDECTESTRENALYD [SNF2] | 3.07 ± 0.15 |
| LLNEYRPHQSRESLIML [MED7] | 2.15 ± 0.12 |
| LLNHGERAELETDEYIS [RPN1] | 1.87 ± 0.083 |
| LLNLPPFQVSSFVKETK [SRB8] | 1.88 ± 0.035 |
| LLPANLLSLNSVRSLQK [SRP68] | 2.48 ± 0.063 |
| LLQEGGSLSGNSSSMEE [ESC2] | 2.67 ± 0.16 |
| LLQKMLNLLNYQELFIQ [YML103C/NUP188] | 1.47 ± 0.038 |

| Sequence | protein stability index |
| --- | --- |
| LLRPSSKVIIKFLQVMQ [RPS22B] | 1.61 ± 0.044 |
| LLRSRLATRRVLQEYRL [RPO21] | 2.07 ± 0.083 |
| LLTKNVSCYRPRRDGER [RPS6A] | 2.8 ± 0.12 |
| LLVFRNADLDLDEMELH [YDL116W/NUP84] | 2.45 ± 0.073 |
| LLVIGGNQRKILQYSRT [YJR042W/NUP85] | 2.27 ± 0.096 |
| LLVKLSKRLPLRFPEHT [BRR2] | 2.75 ± 0.07 |
| LMETLRTLRRKGDINPE [RPB2] | 3.37 ± 0.079 |
| LMRQALAIKDSKKRFAA [RPO21] | 2.12 ± 0.055 |
| LMTHITTDDEEEPIKKL [RET1] | 3.41 ± 0.28 |
| LNEYKRETLVKTWEKVT [SMC2] | 1.84 ± 0.046 |
| LNFKDDKKYKGLTTVWL [REC8] | 2.77 ± 0.14 |
| LNGILADEMGLGKTIQT [SNF2] | 2.67 ± 0.1 |
| LNHRNKNQHRAASWYGS [RMP1] | 3.31 ± 0.07 |
| LNLDSLLVDQKQLNSLR [SMD1] | 2.79 ± 0.059 |
| LNNLPYKNEDVTALLEQ [YCS4] | 3.09 ± 0.05 |
| LNSNIRAGVTIPSIPNP [SNF5] | 2.72 ± 0.062 |
| LNSNNSIIGNKNNNYTW [REC8] | 2.76 ± 0.1 |
| LNTFHFAGVASKKVTSG [RPO21] | 3.13 ± 0.078 |
| LNVGNVLPLGSVPEGTI [RPL2A] | 3.15 ± 0.082 |
| LNVVMKNLERLRGEYND [SMC4] | 3.49 ± 0.11 |
| LPAPPVCIRPSVMMQDS [RPO31] | 2.08 ± 0.1 |
| LPIESQFVSKLVDNLNA [BRR2] | 2.34 ± 0.049 |
| LPKIIQLQGPQWMNEMV [SOH1] | 3.29 ± 0.064 |
| LPKLNLPKYQTIQYDPP [SNF5] | 2.6 ± 0.11 |
| LPQCIIPSSYIKRTDEG [ARP7] | 2.59 ± 0.068 |
| LPRYQELTKEEAMYKLQ [SMC3] | 3.18 ± 0.087 |
